For 1 substance, Km results are on record in PMC9275233, “Functional Characterization of a Regiospecific Sugar-O-Methyltransferase from Nocardia” (Applied and Environmental Microbiology, 2022).

Series [1] relates to C[S+](CC[C@H](N)C(=O)O)C[C@H]1O[C@@H](n2cnc3c(N)ncnc32)[C@H](O)[C@@H]1O. Description: HPLC methylation assay, nonlinear Michaelis-Menten fit. In kind it is biochemical, Nocardia sp. CS682. The settings on record: 100 μM QR (near saturation), 2 mM MgCl2, 50 mM Tris-HCl pH 7.5, SAM 5 to 200 μM.
Series [2] relates to C[C@@H]1O[C@@H](Oc2ccc(O)c3c2C(=O)c2ccccc2C3=O)[C@H](O)[C@H](O)[C@H]1O. The series is described as above. Type of series: biochemical, Nocardia sp. CS682. The settings on record: 2 mM SAM (saturating), 2 mM MgCl2, 50 mM Tris-HCl pH 7.5, QR 5 to 200 μM.

Consider ThnM1 (Nocardia sp. CS682), for which the Km worked out at 32.7 ± 7.06 µM in series [1] and 11.70 ± 1.97 µM in series [2].
